Measurements from article PMC12409426, “Regulation of the MDM2-p53 nexus by a nuclear phosphoinositide and small heat shock protein complex” (The Journal of Biological Chemistry, 2025).

Legend:
Details in all cases: both partners purified
[1] = target: T1, His-tagged MDM2 (recombinant, bacteria-expressed) (UniProt Q00987 1-491); experiment: MST; fluorescence-labeled MDM2 (target, 5 nM, RED-NHS) constant, non-labeled ligand titrated to 500 nM; 50 mM Tris-HCl pH 8.0, 50 mM NaCl, 80 mM KCl, 0.05% Tween-20; Monolith NT.115 Pico
T1 construct: MDM2, E3 ubiquitin-protein ligase; His-tagged construct purchased from Genscript; also called His-MDM2; MDM2 recombinant protein; source: E. coli BL-21(DE3), purified (Ni-NTA-agarose)
T1 sequence (Q00987 whole entry): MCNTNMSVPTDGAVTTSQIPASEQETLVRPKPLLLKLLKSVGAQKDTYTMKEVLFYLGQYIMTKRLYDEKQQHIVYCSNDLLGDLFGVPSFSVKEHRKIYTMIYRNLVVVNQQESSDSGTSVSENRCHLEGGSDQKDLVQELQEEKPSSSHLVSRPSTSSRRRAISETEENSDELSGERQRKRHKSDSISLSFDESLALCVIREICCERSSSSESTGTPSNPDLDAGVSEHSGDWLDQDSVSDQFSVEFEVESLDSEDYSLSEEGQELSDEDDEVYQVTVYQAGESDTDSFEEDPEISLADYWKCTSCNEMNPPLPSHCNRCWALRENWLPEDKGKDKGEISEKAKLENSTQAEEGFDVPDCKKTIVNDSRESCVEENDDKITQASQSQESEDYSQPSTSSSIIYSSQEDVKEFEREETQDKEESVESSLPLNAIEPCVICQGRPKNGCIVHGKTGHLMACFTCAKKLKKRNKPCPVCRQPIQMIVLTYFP

[2] = target: T1, His-tagged MDM2 (recombinant, …); experiment: MST; fluorescence-labeled αBC or HSP27 (target, 5 nM, RED-NHS) constant, non-labeled His-/FLAG-MDM2 or His-/FLAG-p53 titrated to 500 nM; 50 mM Tris-HCl pH 8.0, 50 mM NaCl, 80 mM KCl, 0.05% Tween-20
[3] = target: T2, FLAG-tagged MDM2 (mammalian-expressed, PIPn-linked) (UniProt Q00987 1-491, PIP2 stably associated (PIPn-linked), site not told); experiment: as above
T2 construct: MDM2; cDNA purchased from OriGene; Its chemistry and site are unknown; also called FLAG-MDM2; PIPn-linked MDM2; source: HEK293FT, purified (FLAG Purification Kit), dialysed into PBS
T2 sequence (Q00987 whole entry): as above

Kd [1]: 58 ± 5 nM | Kd [2]: 58 ± 5 nM | Kd [3]: 7 ± 1 nM
B1: αB-crystallin (recombinant, His-tagged) (natural protein, UniProt P02511 1-175, looked up)
chain: MDIAIHHPWIRRPFFPFHSPSRLFDQFFGEHLLESDLFPTSTSLSPFYLRPPSFLRAPSWFDTGLSEMRLEKDRFSVNLDVKHFSPEELKVKVLGDVIEVHGKHEERQDEHGFISREFHRKYRIPADVDPLTITSSLSSDGVLTVNGPRKQVSGPERTIPITREEKPAVTAAPKK
notes: αB-crystallin; His-tagged construct purchased from Genscript; source: E. coli BL-21(DE3), purified (Ni-NTA-agarose)
